A short description of the series: yeast display, Sf9 membrane polyspecificity reagent, FACS + sequencing; frameworks hold sequencing errors. In short, it runs like this: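 After 36–48 hours of galactose induction, yeast (Saccharomyces cerevisiae BJ5465) displaying a synthetic nanobody library were stained at 4 °C for 1 hour with 10% biotinylated, detergent-solubilized Sf9 membrane reagent. Streptavidin microbeads enriched the stained cells before FACS sorting into low and high (top ~1%) gates on anti-HA and streptavidin fluorescence. Each clone's polyreactivity label reflects its gate of origin.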
Regarding “QVQLVESGGCLVQAGGSLRLSCAASGSIFNRYTMGWYRQAPGKEREFVAAISSSGTSTYYADSVKGRFTISRDNAKNTVYLQMNILKPEDTAVYYCAADWTGGFYTWYVIPYDYWGQGTQVTVSS”, the “polyreactivity (PSR sort gate)” value was “low polyreactivity”.
In the case of “QVQLVESGGCLVQAGGSLRLSCAASGSIFRRNAMGWSRQAPGKERELVAAISRTGGSTYYADSVKGRFTISRDNAKNTVYLQLNSLKPEDTAVYYCNTYSDYADDDYWGQGTQVTVSS” it was “high polyreactivity”.
As for “QVQLVESGGCLVQAGGSLRLSCAASGSIFSSYQMGWYRQAPGKQRELVEAISSGGSTNYADSVKGRFTISRDNAKNTVYLQMHRLKPEDTAVYYCNVDLFNWGGDSTGYDYWGQGTQVTVSS”, the “polyreactivity (PSR sort gate)” value is given as “low polyreactivity”.
With “QVQLVESGGCLVQAGGSLRLSCAASGSIIYCYAMGWYRQAPGKERELVADISRGGITYYADSVKGRFTISRDNAKNTVYLQMNSLKPEDTAVYYCSKTHYGVQRLDSWGQGTQVTVSS” the entry was “low polyreactivity”.
In the case of “QVQLVESGGCLVQAGGSLRLSCAASGSIMYSYAMAWYRQAPGQERELVAAITGDGASTNYADYVKGRFTISRDNAKNTVYLQMNSLKPEDTAVYYCNAGRESDDVYEGSQRIGQFDYWGQGTQVTVSS” it was “low polyreactivity”; in that of “QVQLVESGGCLVQAGGSLRLSCAASGSTFGVNAMGWYRKAPGKERELVADISVRTDSTYYADSVKGRFTISRDNAKNTVYLQMNSLKAEDTAVYDCNAGLVIEYDYWGQGTQVSVSS”, “low polyreactivity”.
With “QVQLVESGGCLVQAGGSLRLSCAASGSTFLGNAMGWYRQAPGKERELVAGITSGGTTNYADSVKGRFTISRDNAKNTVYLQMNSLKPEDTAVYYCNADVWIGQLFDPGYDFDYWGQGTQVTVSS” the entry was “low polyreactivity”; with “QVQLVESGGCLVQAGGSLRLSCAASGSTFPIYAMGWYRQAPGKERELVARITWNGGRTYYADSVKGRFTISRDNAKNTVYLQMNSLKPEDTAVYYCNALYYHNLEGNYWGQGTQVTVSS”, “high polyreactivity”; with “QVQLVESGGCLVQAGGSLRLSCAASGSTFTPYVMGWYRHAPGKERELVAAISKRGGSTYYADSVKGRFTISRDNAKNTVYLQMNRLKPEDTAVYYCAAVQPAWGNGYWGQGTQVTVSS”, “high polyreactivity”.
On to “QVQLVESGGCLVQAGGSLRLSCAASGSTFYLNAMGWYRQAPGKEREMVAAITVSGGSTYYADSVKGRFTISRDNAKNTVYLQMNSLKPVDTAVYFCSRELLCPTYQRWYYYWGLGTQVTVSS”, for which the “polyreactivity (PSR sort gate)” value was “low polyreactivity”.
With “QVQLVESGGCLVQAGGSLRLSCAASGSTLGYYVMGWYRQAPGKERELFAAITGCGSTDYADSVKGRFTISRDNAKNTVYLQMNSLIPEDTAVYYCAAERTRTGQLFWWGPIYDYWGQGTQVTVSS” the entry was “low polyreactivity”; with “QVQLVESGGCLVQAGGSLRLSCAASGSTLVIYAMGWYRQAPGKESELVAAINFSDGSTSYADSVKGRFTISRDNAKNTVYLQMNSLKPEDTAVYYCAADWWYGYSNYDYWGQGTQVTVSS”, “low polyreactivity”.
As to “QVQLVESGGCLVQAGGSLRLSCAASGYIFYGYAMGWYRQAPGKERELVAAITVRGGSTYYADSVKGRFRISRDNAKNTVYLQMNSLKPQDTAVYYCAAAPQFTFGVGYWGQGTQVTVSS”, the “polyreactivity (PSR sort gate)” value is “low polyreactivity”.
For “QVQLVESGGCLVQAGGSLRLSCAASGYTIRYYSMGWYRQAPGKERELVAAISYSGGSTYYADSVKGRFTISRDNAKNTVYLQMNIMKPEDTAVYYCDAGFSLYLGFEYWGQGTQVTVSS”, the “polyreactivity (PSR sort gate)” value was “high polyreactivity”.
With “QVQLVESGGCLVQAGGSLRLSCAATGSTLGSYAMGWYRQAPGKERELVAAITFLGGSTYYADSVKGRFTSSRDNAKNTVYLQMNSLKPEDSAVYYCAARFLRVLFNLVFIYDYWGQGSQVTVSS” the entry was “high polyreactivity”.
With “QVQLVESGGCLVQAGGSLRLSCADSGIIYYYYAMGWYRQAPGKERELVAAISTSGGRTYYADSVKGRFTISRDNAKNTVYLQMNSLKPEDTAVYYCAADYLKGEEDYWGQGTQVSVSS” the entry was “low polyreactivity”; with “QVQLVESGGCLVQAGGSLRLSCASSGNIFTIYTMGWYRQAPGKERELVASIYRGGTTYYADSVKGRFTISRDNAKNTVYLQMNSLKPEDTAVYYCAVYSPRLRRVHTRGYWGQGTQVTVSS”, “high polyreactivity”; with “QVQLVESGGCLVQAGGSLRLSCASSGRIFRGYAMGWSRQAPGKERELVAVISYSGTRTYYADSVKGRFTNSRDIAKNTVYLQMNSLKPEETAVYYCNARANGFKDGYWGQGTQVTVSA”, “high polyreactivity”.
With “QVQLVESGGCLVQAGGSLRLSCDASGSTFLTNTMGWYRQPPGKERELVAAISSGDSTYYADSVKGRFTISRDNAKNTVYLQMNSLKPEVTAVYYCARDVGWRNVPRDYWGQGTQVTVSS” the entry was “low polyreactivity”; with “QVQLVESGGCLVQAGGSLRLSCPASGFTLPANGMGWYRQAPGKERELVAAISFIAGSTYYADSVKGRFTISRDNAKNTVYLQMNSLKPEDTEVYYCATQFPPSTIYDYWGQGSQVTVSS”, “low polyreactivity”.
Take “QVQLVESGGCLVQAGGSLRLSGAASGRTQVPYAMGWSRQAHGNERELVASISSGGSTNYADSVKGRFTISRDNAKNTVYLQMNSLKPEDTAVYYCNAEPIGSEVDYWGQGTQVTVAS”: the “polyreactivity (PSR sort gate)” value is given as “low polyreactivity”.
With “QVQLVESGGCLVQAGGSLRLSWAASGRTLGGYALGWYRQAPGKERELVAAINRSGTRTYYADSVKGRFTISRDKAKNTVYLQFNSLKPEDTAVYYCAASWYPGSRNYDYGGQGTQVTVSS” the entry was “high polyreactivity”; with “QVQLVESGGCLVQAGGSLRLTCAASGRIFDLYTMGWYRQATGIERELVAGIYGNGDGTYADSVKGLFTISRDNAKNPVYLQMNSLKPEDTAVYYCAADGIYIYHPYTRFDYCGQGTQVTVSS”, “low polyreactivity”; with “QVQLVESGGCLVQAGGSLRLTCAASGRIFRGNVMGWYRQAPGKERELVAAISGRGGNTYYADSVKGRFTISRDNAKNTVYLQMNSLKPEDTAVYYCAATRKDDYQYGYWGQGTQVTVSS”, “high polyreactivity”.
Take “QVQLVESGGCLVQAGGSLRLTCAASGSTFDRKARGWYRQAPGKERELVAAITKSGGSTYYADSVKGRFTISRDNAKNTVYLQMNSLKPEDTAVYYCKEFYRAVYPYYYWGQGTQVTVSS”: the “polyreactivity (PSR sort gate)” value is “low polyreactivity”.
Regarding “QVQLVESGGCLVQAGGSLRLTCAASGSTFGYEGRGWYRQAPGKERELVASIDSRCDSTYADSVKGRFTISRDNAKNTVYLQMNSLKPEDTAVYYCAADSWYTWFDSWGQGTQVTVSS”, the “polyreactivity (PSR sort gate)” value is given as “low polyreactivity”.
In the case of “QVQLVESGGCLVQAGGSLSLSCAASGSTFPYPYTIGWYRQAPGKERELVAVISRTGGSTFYADSVKGRFTISRDNAKNTVFLQINSLKPEDTAVYYCARQRYEYRTTYYYWGLGTQVTVSS” it was “high polyreactivity”; in that of “QVQLVESGGCLVQAGGTLRLSCAASGFIFYHNAMGWYRQAPGKERELVAAISGSGGSTHYADSVKGRFTISRDNAKNSVYLQMNSLKPEDTAVYYCARRFWFHYYGYDYWGQGSQVTVSS”, “high polyreactivity”.
In the case of “QVQLVESGGCLVQAGGTLRLSCAASGRTFIVYSMGWYRPAPGKERELVAAITTSVGRTYYADSVKGRFTISRDNAKNTVFLQMISLKPEDTAVYYCADDLLDGYSEYSYWGQGTQVTVSS” it was “low polyreactivity”; in that of “QVQLVESGGCLVQAGRSHRLSCAASGRIFYGYALGWYRQAPGKERELVAAITRSSSTYYADSVKGRFTISRDNAKNTVYLQMNSLKPEDTAVYYCNAYSWYGYDYWGQGTQVTVSS”, “high polyreactivity”.
With “QVQLVESGGCLVQAGRSLRLRCAASARTIGSNAMGCYRQAPGKARELVDAISSRGGSTYYADSVKGRITISRDNAKNTVYLQMNSLYPEDTAVYYCDSEYYPHTTYLSDNWGQGTQETVSS” the entry was “high polyreactivity”; with “QVQLVESGGCLVQARGSLRLSCASSGSTFGRNAMGWYRQAPGKERELVASISRRGGSTYYADSVKGRFTISRDNAKNTVYLQMNSLKPEDTAVYYCNRVQFSPVYRFREYDYWGQGTQVTVSS”, “high polyreactivity”; with “QVQLVESGGDLVQAGGSLRLSCAASGITFYVNTMGSYRPAPGKERELVAAIDWTDGGTYYADSVKGRFTISRDNAKNTVYLQMNSLKPEDTAVYYCAREYYWDIKGLYGYLAYDLDYWGQGSQVTVSS”, “low polyreactivity”.
“QVQLVESGGGFDQAGGSLRLSCAASGSIFSGYAMGWYRQAPGKETELVAAINWSGGRTYYADSVKGRFTISRDNEKNTVYLQMKSLKPEDTAVYYCAAAGARSIYRMDYWGQGTQVTVSS”: the “polyreactivity (PSR sort gate)” value was “high polyreactivity”.
With “QVQLVESGGGFFQAGGSLRLSCAASGSTFVYNAMGWYRQAPGKERELVAAISRNGGRTYYADSVKGRFTISRDNAKNTVYFQMNSLKPEDTAVYYCAADYRVQLRKEYDYWGQGTQVTVSS”, the “polyreactivity (PSR sort gate)” value is “high polyreactivity”.
With “QVQLVESGGGFVQAGGSLGLSCAASGSIFFVYAMGWYRQAPGKERELVADSTNGGDRNYADSVKGRFTISREHAKNTVYLQMHSLKPEDTAVYDCNARYYGYRSWLEAYNRGDYWGQATQVTVSS” the entry was “high polyreactivity”; with “QVQLVESGGGFVQAGGSLRFSCAASGRIFPGYAMGWYRQAPGKERELVAAISASGGSTYDADSVKGRFTISRDNAKNPVYLQMNSLKPEDPAVYYCNAVYRLIRFDYWGQGTQVTVSS”, “high polyreactivity”; with “QVQLVESGGGFVQAGGSLRISCAASGSTIGGNGKGWYRQAPGKEREIVATITWPSGSTYYADSVKGRFTISRDNAKNTVYLQMKSLKPEDTAVYYCAKNTSSRRNPWYYYWGQGTQVTVSS”, “high polyreactivity”.
With “QVQLVESGGGFVQAGGSLRLSCAASGFIFNRNAMGWYRQAPGKERELVAAISRSGGRTYYADSVKGRFTISRDTAKNTDYFQMNSLKPEDTAVYSCATEGYDGEFDYWGQGTQVTVSS” the entry was “high polyreactivity”; with “QVQLVESGGGFVQAGGSLRLSCAASGFTFTSYAMGWYRQAPGKEREFVAAIRRSGSGTNYADSVKGRFTISRDNAKNTVYLQLNSLKPEDTAVYYCAAEQWGWYWYDYWGQGTQVTVSS”, “high polyreactivity”.
For “QVQLVESGGGFVQAGGSLRLSCAASGLSFNFNAMGWYRQAPGKERELVAAIDSGGDTNYADSVKGRFSISRDNEKNTVYLQMNSLKPEDTAVYYCNTDRYPYAFEYWGQGTQVTVSS”, the “polyreactivity (PSR sort gate)” value is given as “low polyreactivity”.

The values above are taken from the nanobody polyreactivity screen of Harvey et al. (2022).
